Data from patent US20230151091A1 (NEW YORK UNIVERSITY, published 2023).
Substitutions are numbered along the chain they refer to. One block for each binder: values may come before it.

What was measured:
human MuSK = target: T1, human MuSK (human, UniProt O15146 24-495); assay: Biacore T200, off rate at pH 5.5 against pH 7.4
T1 construct: Recombinant protein coated on ELISA plates (R&D Systems cat. 10189-MK) or on the Biacore chip; also called human muscle-specific tyrosine protein kinase; full length human MuSK
T1 sequence: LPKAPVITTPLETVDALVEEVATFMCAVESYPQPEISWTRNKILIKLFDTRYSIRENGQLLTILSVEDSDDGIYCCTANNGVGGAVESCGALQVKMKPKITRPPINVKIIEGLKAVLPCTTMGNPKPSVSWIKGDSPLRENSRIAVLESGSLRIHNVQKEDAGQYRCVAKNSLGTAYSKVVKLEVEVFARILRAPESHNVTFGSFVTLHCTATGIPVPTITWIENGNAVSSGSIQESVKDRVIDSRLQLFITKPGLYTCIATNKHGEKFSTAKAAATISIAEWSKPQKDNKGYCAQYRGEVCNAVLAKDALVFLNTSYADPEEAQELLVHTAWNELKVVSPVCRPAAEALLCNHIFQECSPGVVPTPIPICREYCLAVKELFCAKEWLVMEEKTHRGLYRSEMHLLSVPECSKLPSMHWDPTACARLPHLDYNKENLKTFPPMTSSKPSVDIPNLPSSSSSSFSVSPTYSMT
Outline: (§1)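 Surface plasmon resonance was run with both human and mouse MuSK immobilized on the sensor chip. Fab association was always performed at pH 7.4 before the dissociation phase. Kinetic parameters were calculated from the binding curves.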

mouse MuSK = target: T2, mouse MuSK (mouse, UniProt Q61006 22-494, limits assumed); assay: Biacore T200, off rate at pH 5.5 against pH 7.4
T2 construct: Coated on ELISA plates or on the Biacore chip; also called full length mouse MuSK; mouse MuSK (in house produced in HEK293 cells)
T2 sequence (looked up): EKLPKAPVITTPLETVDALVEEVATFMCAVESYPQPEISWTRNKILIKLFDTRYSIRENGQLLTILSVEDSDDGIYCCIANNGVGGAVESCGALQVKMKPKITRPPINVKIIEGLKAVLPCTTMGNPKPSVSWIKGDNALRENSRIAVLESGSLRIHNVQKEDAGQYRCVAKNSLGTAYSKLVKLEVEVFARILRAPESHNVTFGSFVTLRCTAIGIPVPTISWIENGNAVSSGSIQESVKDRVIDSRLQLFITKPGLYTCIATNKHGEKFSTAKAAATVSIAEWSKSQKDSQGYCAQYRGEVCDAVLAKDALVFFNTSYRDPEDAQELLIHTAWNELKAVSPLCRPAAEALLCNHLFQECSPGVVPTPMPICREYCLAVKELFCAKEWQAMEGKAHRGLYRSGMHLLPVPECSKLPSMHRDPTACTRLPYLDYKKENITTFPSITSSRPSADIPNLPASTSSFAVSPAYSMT
Outline: as §1

[1] = target: T3, hECD: full-length extracellular region of human MuSK (E22 to T495) with C-terminal Avi- and His6-tags (human, UniProt O15146 22-495, biotinylated in vitro using the BirA enzyme); assay: bead-binding assay, Fab format: biotinylated antigen on streptavidin beads, flow cytometry, 1:1 fit; average ± s.d., n=3
T3 construct: also called human ECD; not shown: Avi- and His6-tags
T3 sequence: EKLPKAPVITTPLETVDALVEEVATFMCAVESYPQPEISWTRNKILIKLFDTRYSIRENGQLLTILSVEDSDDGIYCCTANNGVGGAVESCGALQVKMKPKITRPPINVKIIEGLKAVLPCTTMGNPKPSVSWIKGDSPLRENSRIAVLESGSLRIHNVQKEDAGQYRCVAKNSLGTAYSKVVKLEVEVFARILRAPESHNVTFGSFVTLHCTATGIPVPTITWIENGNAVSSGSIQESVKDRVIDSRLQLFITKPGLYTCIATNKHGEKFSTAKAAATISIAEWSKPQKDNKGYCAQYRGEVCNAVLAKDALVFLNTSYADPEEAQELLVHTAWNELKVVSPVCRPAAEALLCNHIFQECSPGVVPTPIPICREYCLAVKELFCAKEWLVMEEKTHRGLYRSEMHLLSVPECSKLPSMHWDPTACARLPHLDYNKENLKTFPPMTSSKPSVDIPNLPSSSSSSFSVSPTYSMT

[2] = target: T4, mECD: full-length extracellular region of mouse MuSK (E22 to T494) with C-terminal Avi- and His6-tags (mouse, UniProt Q61006 22-494, biotinylated in vitro using the BirA enzyme); assay: as above
T4 construct: range 22-494; also called mouse ECD; not shown: Avi- and His6-tags
T4 sequence (looked up): T2 sequence (looked up)

[3] = target: T5, hFz: Fz domain and C-terminal flanking sequence of human MuSK (K314-T495) with C-terminal Avi- and His6-tags (human, UniProt O15146 314-495, biotinylated in vitro using the BirA enzyme); assay: as above
T5 construct: also called human Fz; not shown: Avi- and His6-tags
T5 sequence: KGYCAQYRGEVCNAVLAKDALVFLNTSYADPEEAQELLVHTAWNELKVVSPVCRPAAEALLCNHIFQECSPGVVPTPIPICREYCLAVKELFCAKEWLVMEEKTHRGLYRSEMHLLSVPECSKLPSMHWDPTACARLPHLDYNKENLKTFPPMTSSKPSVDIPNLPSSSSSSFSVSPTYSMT

[4] = target: T6, mFz: Fz domain and C-terminal flanking sequence of mouse MuSK (D307 to T494) with C-terminal Avi- and … (mouse, UniProt Q61006 307-494, limits assumed, biotinylated in vitro using the BirA enzyme); assay: bead-binding titration, Fab format: antigen immobilized on streptavidin beads, MFI by flow cytometry, curve is the 1:1 fit
T6 construct: also called mouse Fz; not shown: Avi- and His6-tags
T6 sequence (looked up): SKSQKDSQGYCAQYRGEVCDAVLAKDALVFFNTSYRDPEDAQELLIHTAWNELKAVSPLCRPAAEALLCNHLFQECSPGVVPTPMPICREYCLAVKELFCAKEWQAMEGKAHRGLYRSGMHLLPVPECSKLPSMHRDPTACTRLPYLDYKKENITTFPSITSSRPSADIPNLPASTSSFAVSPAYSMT

- Ratio pH 5.5/7.4 of off rate (human MuSK): 0.6
- Ratio pH 5.5/7.4 of off rate (mouse MuSK): 1
- Kd [1]: 0.86 nM
- Kd [2]: 0.7 nM
- Kd [3]: 0.53 nM
- EC50 (read off the curve) [4]: ~0.5 nM
B1: X2 Fab (Fab, V domains shown)
VH: EVQLVESGGGLVQPGGSLRLSCAASGFTVSSSSIHWVRQAPGKGLEWVASISSSYGSTSYADSVKGRFTISADTSKNTAYLQMNSLRAEDTAVYYCARSEGDRYVSGYMGMDYWGQGTLVTVSS
VL: DIQMTQSPSSLSASVGDRVTITCRASQSVSSAVAWYQQKPGKAPKLLIYSASSLYSGVPSRFSGSRSGTDFTLTISSLQPEDFATYYCQQSGVWLITFGQGTKVEIK
notes: Fab format

- Ratio pH 5.5/7.4 of off rate (human MuSK): 3.5
- Ratio pH 5.5/7.4 of off rate (mouse MuSK): 4.4
- Kd [1]: 0.16 nM
- Kd [2]: 0.4 nM
- Kd [3]: 0.11 nM
- EC50 (read off the curve) [4]: ~0.3 nM
B2: X3 Fab (Fab, V domains shown)
VH: EVQLVESGGGLVQPGGSLRLSCAASGFTISSSSIHWVRQAPGKGLEWVASISSSSGYTYYADSVKGRFTISADTSKNTAYLQMNSLRAEDTAVYYCARSWYEMWMSGYFGFDYWGQGTLVTVSS
VL: B1 VL with G92S, V93S, W94S
notes: Fab format
